In this test the target is Biotin-AP (biotinylated AP-peptide with a fluorescent dye). The test can be described thus: native-PAGE off-rate under excess biotin, 37 °C.

Positions count from the first letter of the chain named.

B1: Monodin (MA) (designed binder)
chain: FDASNFKDFSSIASASSSWQNQHGSTMIIQVDSFGNVSGQYVNRAEGTGCQNSPYPLTGRVNGTFIDFSVKWNNSTENCNSNTQWTGYAQVNGNNTEIVTRWNLKYEGGSGPAIWQGQDTFQYVPTTE
By koff is commonly meant the first-order rate constant of dissociation. A high value points to fast dissociation. Regarding B1, the koff was found to be 5.1e-05 s⁻¹.

B2: Rhizavidin (RA) (protein)
chain: B1 chain with H23S, E46Q, D67A, K71G, N82A, Q84G, R101S, K105A, W115E
B2 had a koff of 4.9e-05 s⁻¹.

(Values after US20170114104A1.)
